The DeepSol protein solubility set

Assay: soluble on expression in E. coli; label from the status in PepcDB or PDB records

Sequence | soluble on expression in E. coli
MGSDKIHHHHHHMKKLFLVLAVLSLVLYGCLRTPPVVKDMVTTDGSLSDWGSKIKEDAADDSKWGADNELLKAGLLFDGANIYIAGEYVIGGDGNVNVFLVLIDLVGVTGAQTVSYTGLNDGNRNFTNPNGDIDLIVEVNQSNEYKVWRVSQDGSLTDITDQVTAQFGTGSTIAELKIPISEQVNQVKAVFAISGGTGGGNQWVGDFYPNQPDHDSAENGGIPQPAPVVNFVVCDKEGNVSEEINQTSEPEQPTESVIVVDGDLSDFGTPVATSTNPGGGNGANLYRLYVTYDATYLYIGFDTQNSGSWDVAYGIGIDTKPSGYTGDSDAWGRKISFGADYAVDYEIYFWWAGGSGLDSNNFCEWNGLDWNYRSIADAGGTFDYTGDTSSGLQTMEIAIPWSAIGGKQDVALIVWITGGSGSAVDSIPDDDSTIDNADEWNDSDTFTNLYLLQVN | not soluble
MGSDKIHHHHHHMKKLLNTLYVTRQETYVHKERDTIVINSAGEKLAQFPALTISNILCFGQVSVSPPMMGYCGENGIGLVFYTEYGRFLARMIGKQTGNVLLRRTQYRLADDPEKANAIARVMVGAKIANARTVLMREIRNHGEHANISRAVEQLGYSLKSCQFSQSVPQTMGIEGDAAATYFSVFNGLIRGSRFQFNGRIRRPATDPVNALLSFIYSLITQECVSALMGVGLDPYVGFLHQDRPGRPSLALDLLEEFRASWADRFVLTLLNRRQLSPQAFVTEASGAVRLTDDTRKQVLVAFQERKQEEVVHPYLQEKVPYGLLPHCQALLLARHLRGDMEFYTPYLIK | not soluble
MGSDKIHHHHHHMKKLTVYLATTNPHKVEEIKMIAPEWMEILPSPEKIEVVEDGETFLENSVKKAVVYGKKLKHPVMADDSGLVIYSLGGFPGVMSARFMEEHSYKEKMRTILKMLEGKDRRAAFVCSATFFDPVENTLISVEDRVEGRIANEIRGTGGFGYDPFFIPDGYDKTFGEIPHLKEKISHRSKAFRKLFSVLEKILESENR | soluble
MGSDKIHHHHHHMKKVLGGLLVATAVVSLAACSGGEKKASSDVSIKDRYELDEKTPAWKLDKKKEPTKIKWYINSDWTALPFGKDVTTAQIKKDLNVDIEFISGDDSKLNAMISSGDMPDIVTLTEKTGQAALKADSWAYSLNDLAKKYDPYLMKVVNQDTFKWYALEDGKTYGYPNYSNTKADYESGNIPVNDNFVIREDVYNALGKPDVSTPENFEKVMQQIKEKYPEMTPMGFTTVGDGAGPFLDKLQDFLGVPLEDKNGKYYDRNLDKEYLEWLKTFNDVYRAGNISDDSFTDDGATFDEKVKQGNYATMLVAGTSGQGGNFTEFMKKSGTRYIAIDGPSSTSGRKPTLNQTGISGWLSNYITKDAKDPAKVTQLFTYLIDEPGQILTKYGVEGVTYAYNDQGKIDYLPEVKKLEQTDNDAYNKKYGISRFLYFNNDRVNKLKVPMESALTQMQEWGKGKLVPHFVIENINPDAGTPEARANEAIETKLNTTVISMIRAKDDKAFDKSLEDYKAFLKSNKWDAIEKIKSEKMAENRDKLK | not soluble
MGSDKIHHHHHHMKKWLVLGVAAVAFFSYENTPMEQAEADYPKSGGTLIDRYTSEYPGYDWEVRRTATEEFVALTKDGKDYGKYRSKNGVTTQGAVLNKDTETTLAKKGWKAVKSYRKGNTNYLLNLDHAAVYEKKDRYVTYFFDQHDGNKVKATLAIPKEVEAKKSGFYGKASSALRTTDEKLMLRLMNWDRADYNLGALTPYSPLKPVTRAHSENMAKNNFFSHTDPERRDPFDRMKENGIRFSAAGENLSMGYPNVFAAHWGLMNSKGHRDNIMNKTFEQADTGVAFRDNAPYFTINFRTP | not soluble
MGSDKIHHHHHHMKKYYLLSLISASLIGATCIQCTSPKQKSGENTLPQKSELFVSLPDYCPTPDGMAIAPNGDLILACPNFADITQPACLMRITKDGAVSKWLDVPVLEETGWASPMGLAFNEEGDLFISDNQGWSGAEKAKNKGRVLRLKFENDQLKETITVASGMEHPNGIRIRNGKLYVTQSSLSQIKDPSGLLVSGVYCFDMNDRDIAVTNTSADQNLLTTVITKNPEVQYGLDGIVFNEAGDLFVGNFGDGAIHRIKMDAEGKVVSNDVWAQDTTQLRTTDGMCIDDKGNIWVADFSANAVARVDKDGKIQRIAQSPDCDGSDGGLDQPGEPIVWNGQVIVSCFDLVTGPDKVNTKHDKPFTLAKLSLE | not soluble
MGSDKIHHHHHHMKLAVISSIYKNDSLSKIKQSLQSLLNQENVTCDIYLYCDGPVSIDIVHFLDSFDQNSLYIFKQEQNRGLAHALNELLNIVLTKEYEYIARMDADDISMPERFVKQIAFMNSHPDIDCLGTWAIEIDDDGKEYFRKKMPITHEECLELFKKRDCMIHPTVMFRRSYFEKAGLYPEDTYFGEDTMMWAKGFKSGCKFANVPEYLFKFRLDSNFFERRRGWKHAKSIYTLRHRVNRMLGFGWKEDCYALLYAMAKLMPKSILDIIYKTVR | not soluble
MGSDKIHHHHHHMKLDINICNNIKSIRTRLGMSQQDLANIAGVTRQTISGVESGQYAPSVAITLRLAKALGCQVENLFWLEDDLPEIEAVLAKPVPTGQQLRVSLAKVGGQWIAYPLVGKEAFRMEMIPADGRAESQTHTNKVQVRLLDDLDKLQNTVVIAGCTPVISFLARATERWHPQLRVHYHFANSMAALRSLNRGEVHIAGMHLYDPQTGEHNIPFAREALDGRSAVLITLGIWEEGLVVAPGNPMEIKSLSDLVELEATIINREPGSGSRMLLERKLKEEKVSANTIKGYEHIVHSHQDVALSIAAGIADAGVSTASVAAAFGLGFIPLHQARYDLVILKEYLEEAPVQQFLSILGHRLVQSQLEVLGGYDISDIGEVVATI | not soluble
MGSDKIHHHHHHMKLRLRKPMRSAGNMSSLVDFYNDFITRHGFEERKGIEETLRYLENGHNVILKAPTGYGKTTLTMILANAVSSNIDIGSRVIHVLPYRAIVQDLYLKLKKYADKGIIYTKSIGAQDMDYHDSPFFMKKVNVTTLDTFILNLFKLPTIDFKLIFKNYGSHYEFPRALIYSSIVIFDEFHLLGEDGKSLGAGLSAIEVLSDAGVPIVVTSATIDKGLERVLMDKLGKSGKVVYASDFKIDRKIYVNELEKDEISIADEKVKEGKRVLLVYNTRMGAIEAYWKLKERGLSPILIHSKFSKKDRIDKVNKINDAKLVVSTQVIEAGIDTSFDVLITEACPSHNLIQRAGRVARYGKGGKGKLEGEVYIFPFSGKVYNEGEVKETMKRVRKLKTIDESLLIERDYTKEIDSILARDLSVIDNSVFVDYKKVKSLYENICSITRETSIILGFPPNSDNVDDAIPLTEEEAIKIIKSKGSSAFVGNSNIKLYAGKCLQLEMIKNDILGVRIQDYNSEIGGVY | not soluble
MGSDKIHHHHHHMKLSVKIAGVLTVAAAAMTAKMYATAKGNHLKTHTFPLSKMKGKPPLTIFFISDIHKRLIDQDLLEKARSHAPHLVIIGGDLAEGGVPSARIEENIKRLVHFGVPIVFVWGNNDYEVRQHKLYSIFKAHGVITLRNESVPFSYNGHTIAIAGVDDIRMEMDHYEEAIKELDESQLNILVCHNPEIHEQINEDDGIDVILSGHTHGGQIRFGKFGPYELGKTGIVKNAAYLISNGYGTTKVPLRLGAEPETHIVTLCGPE | not soluble
MGSDKIHHHHHHMKNHTYKEIKNIYGKISPFEFKDKLIDIAKYTAKENNRELLDAGRGNPNWTCSTAREAFFTFGHFAITETRSNWDLGHLAGMPQKKGIKERFFKFINENIDMPGAYLARDIINFGINELGFDGDEFVHELADGIIGDNYPLPDRMLPHMEKIVHDYLVQEMKYDISGKYGDVEIFAVEGATAAMCYIFDSLMANELLKKGDTIALMTPIFTPYLEIPNLPRYDFKVVNINANEVDEKGAHTWQYTKKELEKLRDKSIKALFVVNPNNPASIAMDETSCNNLIDVIENYNKDLMIISDDVYGTFVEDFSSLMSKLPYNTVGVYSYSKYFGVTGWRLGTFALHKKNVFDKKINDLTGELKKSVDKRYSDMSLNPSSLSFMERVVADSRLVALNHTAGLSTPQQVQMAFFSAFALIDKVDAYKKLNMSICHRRQKLLFEALELPINENKNNAAYYTQFDIEEWAKLNYGEDLFKFISKTASPVDVLYKLANDYSVVLLSGNGFYGPEWSIRISLANLYDEAYTKIGKAIREILNGYIVEWQKIKK | not soluble
MGSDKIHHHHHHMKNLEQRKSWYAEVAINYTSQQRKNWYNDVADAYNRTRPRYPQQLVSRVVELAQLPQNAAILEVGCGPGTATTAFAQLGFSMVCLEPSQNSSQLAQQNCSPYPNVEIINTSFEEWPLEPGKFDAVLAATSFHWVSPEIGYSKAADALKDHCSLILLWNMTPQPEYEVYQRLHEVYQAQAPTLERYEEQEAQEKHLRRFGKAVIDSGRFQDLVSEQLRCDVTYSIDDYLTLLSTLSPYIALDSQQRNSLFTSLRETLEKHCGSSVEISYLSAFHVAKKI | not soluble
MGSDKIHHHHHHMKNNFLVNFILLHGYSLDNSSLMFGKMGYSLILFEYSHYFKDALAEKHAFELLQEVLASPMKSNTFNEGKMGIAWSLIHLIEKEYIEADYLELYGQEHKEIVAFIKQLKTDMNNIVSKNDAISFLIASKSYIQESDFDEILPNLIENLYDYLKQIPKSLFERNLFYYHATKMLCLYNLYEELSIRGETLIDIIVQTHKKLISDKHVCTNISFGVNLLQYGLCHKRKDIIKLANAIIKCYFSNMVLETLNLKESIDAIYNLNKLQLLNKESEWTSLKKQLSSLLFNKESYLYKENRLTLSRLKGGIPQLLLMECLNFQDIKSTGHYIMLK | not soluble
MGSDKIHHHHHHMKPLAYRMRPQSIDQVVGQQHLVGPKKIIRRMVEARQLSSMILYGPPGIGKTSIASAIAGSSKYAFRQLNAATDGQKELSQVAAEGKMSGTVVLLLDEIHRLNKVKQDFLLPLLESGQVIMIGATTENPYLAISPAIRSRCQIFELKPLTEEEILTAVDRALTDEERGLGKYHAKLTKEAGEFLAQKGNGDLRATLNSLELAVLSTKQELEAEGKDASSLTVTLDDMADSLQMKIQNFDADGDGHYDLLSAFQKSIRGSDTDAGLHYLGRLLESGDLVSICRRLSVIAYEDIGLANPPACERVILAVQAAQQLGLPEARIPLANAVIELCLSPKSNSAMTAIDAALADIRQSNVGQIPDQLKDAHYKGASKLGHGTGYLYPHDYPGDWVAQAYLPDRMQGKQYFAPKGESKFEAAFKSQYQRLHDLQKAGLKGK | not soluble
MGSDKIHHHHHHMKQIDLVYRTAFAELAQRTFDAQFQADFPLEGRFVAVPVKGRNYWYFDLPTPEGKDKRRYVGPQDDVDITARVKAHRQVKDDIRERRKLVGMLLRSGGMSAPDRFAGEVTKALADAGLFRLRALLVGSVAFSCYSGLLGVRLPGTSMQTGDADFAQDFAISAEVEDSLPPILDLLRSIDSTFRAVPHQADNAKVVAFSNSVNYRVEFLTTNRGSDDYTGKPSPMPALGGASAENLRFLDFLIYEPVRTVLLHREGVSVNIPAPERYAIHKLIVASRRRTDALGRAKRDKDLVQASLLCEALVETRQSHLLADAYREAWTRGEAWQEGILSGLVLMPDNGKLALANALGVTVDRLGKA | not soluble
MGSDKIHHHHHHMKQVDYIIVGQGLAGSCLVQSLWHEKQSVVVIASSERKASSTVAAGLYNPITGKKMLLTWNAAVLFPYLDLFYRSAERELDTTILYPKAIVRPFTDIQAQNDFWAKSTPEIAAFAEPEQNIEKYDPYIWFPYGGLITKHSGYVDVQAFLGAIKQKLVEKDQYIEETFDHAALQFSTNSVAYKGIQAKKIIFAEGFHNTRNPIFNWVPVKGMKGDVLTLDIEAYALKEVVNKHFFIIPLPNGKFRMGSSYIREFEDDAPTEGGLKEITEGAHTILKKPFVVIEQKAGIRPVVPDHRPIIGEHPEQPLALIFNGLGTKGVSIAPYASKTLTNFLLLNQEIDQSMSVNRFNYLYFKQKNN | not soluble
